Key:
[1] = molecular target: His tagged human PCNA (human, UniProt P12004 1-261); assay: far-Western, overlay or dot blot
[2] = molecular target: GST tagged human Cdk1 (human, UniProt P06493 1-297); assay: far-Western, overlay or dot blot
Sequence of GST tagged human Cdk1 (P06493 whole entry): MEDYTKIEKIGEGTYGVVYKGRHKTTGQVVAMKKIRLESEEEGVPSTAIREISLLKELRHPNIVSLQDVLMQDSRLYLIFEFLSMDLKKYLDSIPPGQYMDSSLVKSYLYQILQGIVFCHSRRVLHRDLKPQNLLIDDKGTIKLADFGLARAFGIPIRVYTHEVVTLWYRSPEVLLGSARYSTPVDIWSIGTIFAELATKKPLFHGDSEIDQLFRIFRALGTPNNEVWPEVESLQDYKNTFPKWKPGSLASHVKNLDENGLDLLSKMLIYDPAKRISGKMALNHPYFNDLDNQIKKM

Sequence of His tagged human PCNA (P12004 whole entry): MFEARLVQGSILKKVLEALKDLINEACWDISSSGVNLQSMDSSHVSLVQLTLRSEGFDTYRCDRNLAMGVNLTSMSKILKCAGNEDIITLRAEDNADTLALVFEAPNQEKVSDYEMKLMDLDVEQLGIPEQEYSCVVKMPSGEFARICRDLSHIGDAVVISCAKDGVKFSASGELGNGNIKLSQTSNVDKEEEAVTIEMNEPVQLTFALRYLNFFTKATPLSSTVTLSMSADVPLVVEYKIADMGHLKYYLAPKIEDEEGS

Binder	binding result [1]	binding result [2]
human recombinant Δ80AAG (AAG lacking the first 80 amino acids) (domain or fragment, UniProt P29372 81-298, looked up) GHLTRLGLEFFDQPAVPLARAFLGQVLVRRLPNGTELRGRIVETEAYLGPEDEAAHSRGGRQTPRNRGMFMKPGTLYVYIIYGMYFCMNISSQGDGACVLLRALEPLEGLETMRQLRSTLRKGTASRVLKDRELCSGPSKLCQALAINKSFDQRDLAQDEAVWLERGPLEPSEPAVVAAARVGVGHAGEWARKPLRFYVRGSPWVSVVDRVAEQDTQA	binds	
His tagged human Δ16mtSSB (mtSSB lacking 16 N-terminal amino acids) (natural protein, UniProt Q04837 17-148, looked up) ESETTTSLVLERSLNRVHLLGRVGQDPVLRQVEGKNPVTIFSLATNEMWRSGDSEVYQLGDVSQKTTWHRISVFRPGLRDVAYQYVKKGSRIYLEGKIDYGEYMDKNNVRRQATTIIADNIIFLSDQTKEKE		binds
